Data reported in article PMC10843048.
pKd: −log10 of the molar value.

How the values were obtained:
His+Ala+TIMP2 (human) = His+Ala+TIMP2 (human) (UniProt P16035); test: SPR
[1] = biological target: His+Ala+TIMP2Q186 (human); test: SPR

Sequence of UniProt P16035 (P16035 26-220): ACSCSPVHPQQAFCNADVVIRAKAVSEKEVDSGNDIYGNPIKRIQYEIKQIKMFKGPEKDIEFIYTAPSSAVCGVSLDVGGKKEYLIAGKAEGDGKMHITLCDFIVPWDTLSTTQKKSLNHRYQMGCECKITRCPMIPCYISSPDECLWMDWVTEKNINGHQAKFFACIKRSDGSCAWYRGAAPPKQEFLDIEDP

pKd (His+Ala+TIMP2 (human)): 9.12
pKd [1]: 5.72
Substance: Recombinant C-domain of MMP2 (C-MMP2) (domain or fragment)
